Patent US20120237528A1 (Janssen / Centocor, published 2012)
Where a chain is given by its changes, count along the chain named.

B1: M1583 (antibody, V domains shown)
VH: EVQLVQSGAEVKKPGESLRISCKGSGYTFGPYWIEWVRQMPGKGLEWMGDIIPGSGWTNYSPSFQGHVTISADKSISTAYLQWSSLKASDTAMYYCARSGYYGNSGFAYWGQGTLVTVSS
VL: DIVMTQTPLSLPVTPGEPASISCKSSQSLLSSGNQKNYLTWYLQKPGQSPQLLIYWASTRESGVPDRFSGSGSGTDFTLKISRVEAEDVGVYYCQNDYTYPLTFGQGTKLEIK
notes: complete MAb; FR4 is its own entry; also called H177/L3
B2: M1585 (antibody, V domains shown)
VH: B1 VH with G30S, Y32F, S55T, W57Y
VL: B1 VL
notes: complete MAb; FR4 is its own entry; also called H139/L3
B3: M1586 (antibody, V domains shown)
VH: B1 VH with G30P, P31T, S55T
VL: B1 VL
notes: complete MAb; FR4 is its own entry; also called H164/L3
B4: M1587 (antibody, V domains shown)
VH: B1 VH with G30I, I52L, W57F, N59T
VL: B1 VL
B5: M1588 (antibody, V domains shown)
VH: B1 VH with Y32F, I52L, W57Y
VL: B1 VL
notes: complete MAb; FR4 is its own entry; also called H179/L3
B6: M1589 (antibody, V domains shown)
VH: B1 VH with Y32H, I52L, S55T, W57Y
VL: B1 VL
notes: complete MAb; FR4 is its own entry; also called H187/L3
B7: M1590 (antibody, V domains shown)
VH: B1 VH with G30L, S55T, W57F
VL: B1 VL
notes: complete MAb; FR4 is its own entry; also called H117/L3
B8: M1591 (antibody, V domains shown)
VH: B1 VH with G30R, S55T, W57Y
VL: B1 VL
notes: complete MAb; FR4 is its own entry; also called H122/L3
B9: M1592 (antibody, V domains shown)
VH: B1 VH with G30S, Y32H, I52L, W57Y, N59I
VL: B1 VL
notes: complete MAb; FR4 is its own entry; also called H165/L3
B10: M1594 (antibody, V domains shown)
VH: B1 VH with G30P, I52L, S55T, W57Y, N59V
VL: B1 VL
notes: complete MAb; FR4 is its own entry; also called H158/L3
B11: M1595 (antibody, V domains shown)
VH: B1 VH with G30Y, I52L, S55T, W57F
VL: B1 VL
notes: complete MAb; FR4 is its own entry; also called H160/L3
B12: M1596 (antibody, V domains shown)
VH: B1 VH with G30T, I52L, W57H, N59T
VL: B1 VL
notes: complete MAb; FR4 is its own entry; also called H185/L3
B13: M1597 (antibody, V domains shown)
VH: B1 VH with G30S, P31S, I52L, S55T, W57A, N59H
VL: B1 VL
notes: complete MAb; FR4 is its own entry; also called H134/L3
B14: M1598 (antibody, V domains shown)
VH: B1 VH with G30T, I52L, S55T, W57Y, N59V
VL: B1 VL
notes: complete MAb; FR4 is its own entry; also called H137/L3
B15: M1599 (antibody, V domains shown)
VH: B1 VH with I52L, S55T, W57Y, N59L
VL: B1 VL
notes: complete MAb; FR4 is its own entry; also called H130/L3
B16: M1601 (antibody, V domains shown)
VH: B1 VH with I52L, S55T, W57Y, N59V
VL: B1 VL
notes: complete MAb; FR4 is its own entry; also called H105/L3
B17: M1602 (antibody, V domains shown)
VH: B1 VH with G30D, P31A, Y32H, I52L, W57F, N59D
VL: B1 VL
notes: complete MAb; FR4 is its own entry; also called H106/L3
B18: M1604 (antibody, V domains shown)
VH: B1 VH with G30A, I52L, S55T, W57Y, N59W
VL: B1 VL
notes: complete MAb; FR4 is its own entry; also called H138/L3
B19: M1605 (antibody, V domains shown)
VH: B1 VH with P31T, I52L, S55T, W57H, N59T
VL: B1 VL
notes: complete MAb; FR4 is its own entry; also called H168/L3
B20: M1606 (antibody, V domains shown)
VH: B1 VH with G30I, Y32H, I52L
VL: B1 VL
notes: complete MAb; FR4 is its own entry; also called H181/L3
B21: M1610 (antibody, V domains shown)
VH: B1 VH with G30A, S55T, W57Y, N59T
VL: B1 VL
notes: complete MAb; FR4 is its own entry; also called H115/L3
B22: M1613 (antibody, V domains shown)
VH: B1 VH with G30S, P31S, Y32H, I52L, W57F, N59H, Q82K
VL: B1 VL
notes: complete MAb; FR4 is its own entry; also called H136/L3
B23: M1638 (antibody, V domains shown)
VH: B1 VH with G30I, P31T, I52L, W57S
VL: B1 VL with S31W, S32F, G33V, W56H, Y98D, T99S
notes: complete MAb; FR4 is its own entry; also called H22/L138
B24: M1639 (antibody, V domains shown)
VH: B1 VH with G30I, P31T, I52L, W57S
VL: B1 VL with S31Y, K36R, E61S, Y98D, L102M
notes: complete MAb; FR4 is its own entry; also called H22/L320
B25: M1640 (antibody, V domains shown)
VH: B1 VH with G30I, P31T, I52L, W57S
VL: B1 VL with S31P, G33W, K36S, Y98F
notes: complete MAb; FR4 is its own entry; also called H22/L327
B26: M1641 (antibody, V domains shown)
VH: B1 VH with G30I, P31T, I52L, W57S
VL: B1 VL with S31F, G33A, K36R, E61D, Y98D
notes: complete MAb; FR4 is its own entry; also called H22/L335
B27: M1642 (antibody, V domains shown)
VH: B1 VH with G30I, P31T, I52L, W57S
VL: B1 VL with S31T, G33Y, K36R, Y98L
notes: complete MAb; FR4 is its own entry; also called H22/L369
B28: M1643 (antibody, V domains shown)
VH: B1 VH with G30I, P31T, I52L, W57S
VL: B1 VL with S31Y, S32V, G33Y, N34G, Y98F, T99S, Y100W
notes: complete MAb; FR4 is its own entry; also called H22/L162
B29: M1644 (antibody, V domains shown)
VH: B1 VH with G30I, P31T, I52L, W57S
VL: B1 VL with S31F, S32R, G33P, N34T, Y98D, T99S
notes: complete MAb; FR4 is its own entry; also called H22/L225
B30: M1645 (antibody, V domains shown)
VH: B1 VH with G30I, P31T, I52L, W57S
VL: B1 VL with S31Y, S32T, G33S, Y98D, T99Y, Y100W
notes: complete MAb; FR4 is its own entry; also called H22/L283
B31: M1647 (antibody, V domains shown)
VH: B1 VH with G30A, I52L, S55T, W57F, N59T
VL: B1 VL with S31Y, K36R, E61S, Y98D, L102M
notes: complete MAb; FR4 is its own entry; also called H171/L320
B32: M1646 (antibody, V domains shown)
VH: B1 VH with G30A, I52L, S55T, W57F, N59T
VL: B1 VL with S31W, S32F, G33V, W56H, Y98D, T99S
notes: complete MAb; FR4 is its own entry; also called H171/L138
B33: M1649 (antibody, V domains shown)
VH: B1 VH with G30A, I52L, S55T, W57F, N59T
VL: B1 VL with S31F, G33A, K36R, E61D, Y98D
notes: complete MAb; FR4 is its own entry; also called H171/L335
B34: M1651 (antibody, V domains shown)
VH: B1 VH with G30A, I52L, S55T, W57F, N59T
VL: B1 VL with S31Y, S32V, G33Y, N34G, Y98F, T99S, Y100W
notes: complete MAb; FR4 is its own entry; also called H171/L162
B35: M1652 (antibody, V domains shown)
VH: B1 VH with G30A, I52L, S55T, W57F, N59T
VL: B1 VL with S31F, S32R, G33P, N34T, Y98D, T99S
notes: complete MAb; FR4 is its own entry; also called H171/L225
B36: M1653 (antibody, V domains shown)
VH: B1 VH with G30A, I52L, S55T, W57F, N59T
VL: B1 VL with S31Y, S32T, G33S, Y98D, T99Y, Y100W
notes: complete MAb; FR4 is its own entry; also called H171/L283

Biological target: Innovin, lyophilized recombinant human tissue factor combined with phospholipids (human, UniProt P13726 33-295, limits assumed); also: test concentration or dose not given here
Assay: cell-based or functional assay

Binder	T½ Max (seconds), coagulation of human plasma
B1	189 s
B2	205 s
B3	200 s
B4	202 s
B5	207 s
B6	202 s
B7	180 s
B8	154 s
B9	163 s
B10	165 s
B11	163 s
B12	163 s
B13	157 s
B14	155 s
B15	151 s
B16	180 s

Binder	T½ Max (seconds), coagulation of human plasma
B17	163 s
B18	165 s
B19	160 s
B20	157 s
B21	164 s
B22	165 s
B23	163 s
B24	167 s
B25	168 s
B26	162 s
B27	166 s
B28	148 s
B29	150 s
B30	154 s
B31	160 s

Biological target: T1, recombinant extracellular domain (ECD) of human TF, amino acid 1-219 of the mature chain, C-terminal His6-tag (human, UniProt P13726 33-251)
T1 construct: expressed in a mammalian system; used for ELISA and Biacore; biotinylated by NHS-ester for the Fab ELISA; also called His6-TF-ECD1-219; HumanTF1-219
Assay: Biacore

Binder	Kd	koff	kon
B1	0.42 nM	0.0001 s⁻¹	239000 M⁻¹ s⁻¹
B2	0.49 nM	9e-05 s⁻¹	185000 M⁻¹ s⁻¹
B3	0.78 nM	0.000143 s⁻¹	184000 M⁻¹ s⁻¹
B5	0.35 nM	6e-05 s⁻¹	173000 M⁻¹ s⁻¹
B6	0.4 nM	7e-05 s⁻¹	174000 M⁻¹ s⁻¹
B7	0.69 nM	0.000109 s⁻¹	159000 M⁻¹ s⁻¹
B8	0.41 nM	5.6e-05 s⁻¹	134000 M⁻¹ s⁻¹
B9	0.4 nM	7.7e-05 s⁻¹	191000 M⁻¹ s⁻¹
B10	0.35 nM	4.3e-05 s⁻¹	124000 M⁻¹ s⁻¹
B11	0.39 nM	6.8e-05 s⁻¹	176000 M⁻¹ s⁻¹
B12	0.33 nM	4.3e-05 s⁻¹	131000 M⁻¹ s⁻¹
B13	0.8 nM	6.6e-05 s⁻¹	83400 M⁻¹ s⁻¹
B14	0.33 nM	6.3e-05 s⁻¹	192000 M⁻¹ s⁻¹
B15	0.39 nM	5.3e-05 s⁻¹	138000 M⁻¹ s⁻¹
B16	0.33 nM	4.6e-05 s⁻¹	137000 M⁻¹ s⁻¹
B17	0.62 nM	8.2e-05 s⁻¹	132000 M⁻¹ s⁻¹
B18	0.14 nM	2.2e-05 s⁻¹	152000 M⁻¹ s⁻¹
B19	0.64 nM	8.6e-05 s⁻¹	135000 M⁻¹ s⁻¹

Binder	Kd	koff	kon
B20	0.18 nM	2.9e-05 s⁻¹	166000 M⁻¹ s⁻¹
B21	0.54 nM	0.0001 s⁻¹	184000 M⁻¹ s⁻¹
B22	0.92 nM	7e-05 s⁻¹	75700 M⁻¹ s⁻¹
B23	0.2 nM	–	–
B24	0.08 nM	–	–
B25	0.76 nM	–	–
B26	0.12 nM	–	–
B27	0.95 nM	–	–
B28	0.18 nM	–	–
B29	0.12 nM	–	–
B30	0.08 nM	–	–
B32	0.19 nM	–	–
B31	0.1 nM	–	–
B33	0.17 nM	–	–
B34	0.19 nM	–	–
B35	0.11 nM	–	–
B36	0.16 nM	–	–
